Assay: yeast display, Sf9 membrane polyspecificity reagent, FACS + sequencing; frameworks hold sequencing errors
How it was run: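 Nanobodies came from a synthetic yeast display library in Saccharomyces cerevisiae BJ5465, induced with galactose for 36–48 hours and stained for 1 hour at 4 °C with 10% biotinylated, detergent-solubilized Sf9 membrane reagent. Cells were enriched on streptavidin microbeads and then FACS-sorted, with low and high (top ~1%) gates set on anti-HA fluorescence for expression and streptavidin fluorescence for reagent binding. Each polyreactivity label reflects the gate a clone came from. Genes were amplified by colony PCR, sequenced by MiSeq 2 × 250 and filtered by CDR length.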

Sequence	polyreactivity (PSR sort gate)
QVQLVESGGGLVQAGGSLRLSCAASGRTFNSYAMGWYRQAPGKERELVAGITGTGGSTYYADSVKGRFTISRDNAKNTVYLQMNSLKPEDTAVYYCNALRRCQRYWDPYGYDYWGQGTQVTVSS	high polyreactivity
QVQLVESGGGLVQAGGSLRLSCAASGRTFYPNVMGWYRQAPGKERELVAAISRGGSTYYADSVKGRFTISRDNAKNTVYLQMNSLKPEDTAVYYCAATHYGHSISYWFDYWGQGTQVTVSS	high polyreactivity
QVQLVESGGGLVQAGGSLRLSCAASGFIFNAYAMGWYRQAPGKERELVAAVSWSGARTYYADSVKGRFTISRDNAKNTVYLQMNSLKPEDTAVYYCAAEYSGVHYQQAYDYSEGLDYWGQGTQVTVSS	low polyreactivity
QVQLVESGGGLVQAGGSLRLSCAASGLTFVEYAMAWYRQAPGKERELVAAITSTDGTNYADSVKGRFTISRDNAKNTVYIQMNSLKPADTAVYYCFTLAQDFYFWYYYWGQGTQVTVSS	high polyreactivity
QVQLVESGGGLVKAGGSLRLSCAASGFTIVYYAMGWYIQAPGKERELVAAISATGGRTYYADSVKGRFTISRDNAKNTVYLQMNSLKPEDTAVYYCATRRRVLYGYDYWGQGTQVTVSS	high polyreactivity
QVQLVESGGGLVQAGGSLRLSCAASGRTFGYYAMGWYRQAPGKERELVAAISGSGGSTYYADSVKGRFTISRDNAKNTVYLQMKSLKPEDTAVYYCNVYPPYAMDYWGQGTQVTVSS	high polyreactivity
QLQLVESGGGLVLAAGSLRLSCAASGYTFKSYAMGCSRQAPGKERELVAAISNGGNTYYADSVKGRFTISRDNAKNTVYIQMNSLKPEDTAVYYCAARYGYYYSRYDHWGQGTQVTVSS	low polyreactivity
QVQLVESGGGLDQAGGSLRLSCAASGRTFTVNTMGWYIQAPGKERELVAAIPNGGSTNYADSVKGRFTISHDNAKNTVYLQMNSLKPEDTAVYYCAAYYYYTLYYRYDYWGQGTQVTVSS	low polyreactivity
QVQLVESGGGLVQAGGSLRLSCAASGSTFKKYAIGWYRQAPGKERELVAAITWTGGSTYYADSVKGRFTISRDNAKNTVYLQMNSLKPEDTAVYYCAAYKTYAVKYYWGQGTQVTVSS	high polyreactivity
QVQLVESGGGLVQAGGSLRLSCAASGFIFRYYTMGWYRQAPGKERELVAAITSGGSTTYADSVKGRFTISRDNAKNTVYFQMNSLKPEDTAVYYCNTAYWYSLYDYWGQGTQVTVSS	high polyreactivity
QVQLVESGGGLVQAGGSLRLSCAASGLIFGGNAMGWYRQAPGKERELVAAISRTGGRTYYADSVKGRFTISRDNAKNTVFLQMNSLKPEDTAVYYCNAATSYYTYTYGYWGQGTQVTVSS	high polyreactivity
HVQLVESGGGLVQAGGSLRLSCAASGFIGIYALGWYRQAPGKERELVAAITTSGGRTYYADSVKGRFTISRDNAKNTVYLQMNSLKPEDTAVYYCAAPWRLFSLYDYWGQGTQVTVSS	low polyreactivity
QVQLVESGGGLVQAGGSLRLSCAASGRIFRVYALGWSRQAPGKERELVAAITSGGSTYYADSVKGRFTISRDNAKNTVYLQMNSLKPEDSAVYYCAAKRFRYRPGDYWGQGTQVTVSS	high polyreactivity
QVQLVESGGGLVQAGGSLRLSCAASGRNFNYNAMGWYRQAPGKERELVAVISWSGRTYYADSVKGRFTISRDNAKNTVYLLMNSLKPEDTAVYYCNKRSYRVLYGYWGQGTQVTVSS	high polyreactivity
QVQLVESGGGLVQAGGSLRLSCAASGRTFGFYAMGWYRQAPGKERELVATISSSGGSTYYADSVKGRFTISRDNAKNTVYLQMNSLKPEDTAVYYCAKVVSGWRSHYIGDYWGQGTQVTVSS	low polyreactivity
QVQLVESGGGLVQAGGSLRLSCAASGRTFRGYAMGWYRPAPGKERELVAVISRGGRTNYADSVKGRFTISRDNAKNTVYLQMNSLKPEDTAVSYCAAEVAFIYSLRYDYWGQGTQVTVSS	high polyreactivity
QVQLVESGGGLVQAGGSLRLSCAASGRTFDYNAMGWYRQAPGKERELVAAISYSTGTTYYADSVKGRFTISRDNAKNTVYLQMNSLKPEDTAVYYCAAEIFYSEYGYWGQGTQVTVSS	low polyreactivity
QVQLVESGGGLVQAGVSLRLTCAASGRIFRRYAMGWYRQAPGKEMEFVAAISYGGGSTYYADSVKGRFTISRDNAKNTVYLQMNSLKPEDTAVYYWNADEVVWGYNYWGQGTQVNVSS	low polyreactivity
QVQLVESGGGLVQAGGSLRLSCAASGSTFPTYAMGWYRQAPGKERELVAAITWSGGSTYYADSVKGRFTISRDNAKNTVYLLMNSLKPEDTAVYYCAKSTGYGRRQKRYDWGQGSQVTVSS	high polyreactivity
QVQLVESGGGLVQAGGSLRLSCGASGRTFQFYAMGWYRQAPGKERELVAAISRSSGSTTYADSVKGRFTISRDNAKNTVYLQMNSLKPEDTAVYYCAARRKGKARVPQYDYWGQGTQVTVSS	high polyreactivity
QVQLVESGGGLVQAGGSLRLSCADSGFIFTAYAMGWYRQAPGKERELVAAISRSGGRTYYADSVKGRFTISRDNAKNTVYLQMNSLKPEDTAVYYCNADFHSGGGYWGQGTQVTLSS	high polyreactivity
QVEHVESGGGLVQAGGSLRLSCAASGITFAAYAMGWYRQARGTERELVAAISTSGDSTYYADSVKGRFTISRDYAKITVYLQMNSLKPADTAVYYCNDRRYGYGVGRGLYIYDYCGQGTQVTVSS	high polyreactivity

Sequence	polyreactivity (PSR sort gate)
QVQLVESGGGLVQAGGSLRLSCAASGYIVRNAMGWYRQAPGKERELVAAISRRGGSTYYADSVKGRFTISRDNAKNTVYLQMNSLKPEDTAVYYCAKDKVIPSFDADYYYWGQGTQVTVSS	high polyreactivity
QVQLVESGGGLVQAGASLRLSCAASGRIFSKNAMGWYRQAPGKERELVAAISANTGSTYYADSVKGRFTISRDNAKNTVYLQMNILKPEDTAVYYCATTWTIRRYRYTPRLVDYWGQGTQVTVSS	low polyreactivity
QVQLVESGGGIVQAGGSLRLSCAASGIIIQYYAMGWYRQAPGKERELVAAISWSGGSTYYADSVKGRFTISRDNAKNTVYLQMNSLKPEDTAVYYCAARSRSYWPYEGDYWGQGTQVTVSS	low polyreactivity
QVQLVESGGGLVQAGGSLRLSCAASGSNFYVYAMLWYRQAPGKERELVADITTRDGDTYYADSVKGRFTISRDNAKNTVYLQMNSLKPEDTAVYYCAADLNAYPLRAYDYWGQGTQVTVSS	low polyreactivity
QVHLVESGGGLVQAGGSLRLSCAASGRIFGAYTMGWYRQAPGKERELVAAIAGRTYYADSVKGRFTISRDNAKYTVYLQMNSLKPEETAVYYFADRYKSRNYDYWGQGTQVTVSS	high polyreactivity
QVQLVESGGGLVQAGGSLRLSCAASGRTLYRYAMGWYRQAPGKERELVAAIRSGGRTNYADSVKGRFTISRDNAKNTVYLQMNSLKPEDTAVYYCAARTLRYPSTYDYWGQGTQVTVSS	high polyreactivity
QVQLVESGGGLVQAGGSLRLSCAASGRNFPYYAMGWYRQAPGKERELVAAISSSGGGTYYADSVKGRFTISRDNEKNTVYLQMNSLKPEDTAVYYCAAVYKVHSGLYDYWGQGTQVTLSS	high polyreactivity
QVQLVESGGGLVQAGGSLRLICAASGRIFAHYARGWYRQAPGKERELVAAISWRGGRTYYADSVKGRFTISRDNAKNTVYLQMNSLKPEDTAVYYCNAVGYSQGYDYWGQGTQVTVSS	high polyreactivity
QVQLVESGGGLVQAGGSLRLSCAASGFTLARYAMGWYRQAPGKERELVAAITKRGGSTYYADSVKGRFTISRDNAKNTVYLQMNSLKPEDTAVYYCATYKRSSHYDYWGQGTQVTVSS	high polyreactivity
QVQLVESGGGLLQAGGSLRLSCAASGRIYWNDMAWYRQAPGKERELVAAISWGGDRTYYADSVKGRFTISRDNAKNTVYLQMNSLKPEDTAVYYCNAPGYLTYDHSYDYWGQGTQVTVSS	low polyreactivity
QVQLVESGGGLVQAGGSLRLSCAASGFTFTAYAMGWYRQAPGKERELVAAISYRGGRTNYAYSVKGRFTISRDNAKNTVYLQMNSLKPEDTAVYYCAARPRISTREMDYWGQGTQVTVSS	high polyreactivity
QVQLVVSGGGLVQAGGSLRLSCAASGSTIASNAMGWYRQAPGKERELVAGISSSDGGTYYADSVKGRFTISRDNAKNNVYLEMNSLKREDTAVYYCNAPPGTFQWQGHSDYWGQGTQVTVSS	low polyreactivity
QVQLVESGGGLVQAGGSLRLSCAASGSILGYYAMGWYRPAPGKERELVAAISGRGGSTYYADSVKGRFTISRDNAKNTVYLQMNSLKPEDTAVYYCAVVWGSYYWGQGGGDYWGQGTQVTVSS	high polyreactivity
QVQLVESGGGLVQAGGSLRLSCAASGFTFPRNTMGWYRQAPGKERELVAVISRSGGRSYYADSVKGRFTISRDNAKNTVYLQMNSLKPEDTAVYYCAADTSVRFDYWGQGTQVTVSS	high polyreactivity
QVLLVESGRVLVQAGGSLRLSCAASVSIFANYAMARYIQAPGKERELVASITSSARRTFYADSVKGRFTISRDNAKNTVYLQMNSLKPEVTAVYYCAAKHRRRTVSTRYDDWGQGTQGTVSS	high polyreactivity
QVQLVESGGGLFQAGGSLRVSCAASGSTFYLYAMGWSRQAPGKEREWVAAISRRGGTTNYADSVKGRFTISRDNAKNSVYLQMNSLKPEDTAVYDCGADYQSVGGAEYDYWGQGTQVTVSS	high polyreactivity
QVQLVESGGGLVQAAGSLRLSCAASGRTFYVYDMGWYRQAPGKERELVAVISSSGSTNYADSVKGRFTISGDNAKNSVYLQMNSLKPEDTAVYDCYRRRWYFFSLDYWGQGTQVTVSS	high polyreactivity
QVHLVESGGGLVQAGGSLRLSCAASGSNFDINAMGWYRQAPGKERELVAVITDSGSTYYADSVKGRFTISRDNAKNTVYLQMNRLKPEDTAVYYSAADQVVAGLLTPEYDYWGQGTQVTVSS	low polyreactivity
QVQLVESGGGLVQAGGSLRLSCAASGSIFPSYAMGWYRPAPGIERELVAAINWDGGSTFYADSVKGRFTISRDNAKNTVYLQMNSLKPEDTAVYYCAKYTYQEIRNVGRRGHYYWGQGTQVTVSS	low polyreactivity
QVQLVESGGGLVQAGGSLRLSCAASGFTFYAYAMGWYRPAPGKERELVAGISWSGGSTYYADSVKGRFTISRDNAKNTVYLQMNSLKPEDTAVYYCAAYSIAELWEYYYWGQGTQVTVSS	low polyreactivity
QVQLVESGGGLVQAGGSHRLSCAASGSTFLNNAMGWYRQAPGKERELVATITSGGITNYADSVKGRFTISRDNAKNTVYLQMNSLKPEDTAVYYCNGETWGFTYYYWGQGTQVTVSS	low polyreactivity

— the nanobody polyreactivity screen of Harvey et al. (2022)
